In US20150344570A1 (published 2015):
Positions count from the first letter of the chain named. Numbers in names are those of the source. Read-outs that look alike come from different tables or passages of the source.

B1: H240-Kn179/H240-Hl068/L73-k0 (antibody, human IgG1, kappa)
heavy 1: QDQLVQSGAEVKKPGASVKVSCKASGFNIKDTYIQWVRQAPGQGLEWMGRIDPLRKQTKYREKFEGRVTITADTSTNTAYMELSSLRSEDTAVYYCVRSGREFDYWGQGTLVTVSSASTKGPSVFPLAPSSKSTSGGTAALGCLVKDYFPEPVTVSWNSGALTSGVHTFPAVLQSSGLYSLSSVVTVPSSSLGTQTYICNVNHKPSNTKVDKKVEPKSCDKTHTCPPCPAPEYYWGPMVFLFPPKPKDTLMISRTPEVTCVVVDVSDEDPEVKFNWYVDGVEVHNAKTKPREKQYNATYRVVSVLTVLHQDWLNGKEYKCKVSNKDLPAPIEKTISKAKGQPREPQVCTLPPSRDELTKNQVSLWCLVKGFYPSDIAVEWESNGQPENNYKTTPPVLDSDGSFFLYSKLTVDKSRWQQGNVFSCSVMHEALHNHYTQKSLSLSP
heavy 2: QDQLVQSGAEVKKPGASVKVSCKASGFNIKDTYIQWVRQAPGQGLEWMGRIDPLRKQTKYREKFEGRVTITADTSTNTAYMELSSLRSEDTAVYYCVRSGREFDYWGQGTLVTVSSASTKGPSVFPLAPSSKSTSGGTAALGCLVKDYFPEPVTVSWNSGALTSGVHTFPAVLQSSGLYSLSSVVTVPSSSLGTQTYICNVNHKPSNTKVDKKVEPKSCDKTHTCPPCPAPELLGGPSVFLFPPKPKDTLMISRTPEVTCVVVDVSHEEPEVKFNWYVDGVEVHNAKTKPREEQYNSTYRVVSVLTVLHQDWLNGKEYKCKVSNDALPKPIEETISKAKGQPREPQVYTLPPSRCELTKNQVSLSCAVKGFYPSDIAVEWESNGQPENNYKTTPPVLDSDGSFFLVSKLTVDKSRWQQGNVFSCSVMHEALHNHYTQKSLSLSP
light: DIQMTQSPSSLSASVGDRVTITCRASQDIHKYIAWYQQKPGQAPRLLIQYTSTLQPGVPSRFSGSGSGTDYTFTISSLQPEDIATYYCLQYEQLRTFGGGTKVEIKRTVAAPSVFIFPPSDEQLKSGTASVVCLLNNFYPREAKVQWKVDNALQSGNSQESVTEQDSKDSTYSLSSTLTLSKADYEKHKVYACEVTHQGLSSPVTKSFNRGEC
notes: also called H240-Kn179/H240-HI068/L73-k0
B2: H240-Kn180/H240-Hl068/L73-k0 (antibody, human IgG1, kappa)
heavy 1: B1 heavy 1 with K293R
heavy 2: B1 heavy 2
light: B1 light
notes: also called H240-Kn180/H240-HI068/L73-k0
B3: GpH7-A48/GpH7-B3-01-15Y/GpL16-k0 (antibody, human IgG1, kappa)
heavy 1: QVQLVQSGAEVKKPGASVTVSCKASGYTFTDYEMHWIRQPPGEGLEWIGAIDPKTGDTAYSESFQDRVTLTADKSTSTAYMELSSLTSEDTAVYYCTRFYSYTYWGQGTLVTVSSASTKGPSVFPLAPSSKSTSGGTAALGCLVKDYFPEPVTVSWNSGALTSGVHTFPAVLQSSGLYSLSSVVTVPSSSLGTQTYICNVNHKPSNTKVDKKVEPKSCDKTHTCPPCPAPELLGGPSVFLFPPKPKDTLMISRTPEVTCVVVDVSHEDPEVKFNWYVDGVEVHNAKTKPREEQYNSTYRVVSVLTVLHQDWLNGKEYKCKVSNKALRAPIEKTISKAKGQPREPQVYTLPPSRKELTKNQVSLTCLVKGFYPSDIAVEWESNGQPENNYKTTPPVLDSDGSFFLYSKLTVDKSRWQQGNVFSCSVMHEALHNRYTQKSLSLSP
heavy 2: not shown
light: DIVMTQSPLSLPVTPGEPASISCQASESLVHSNRNTYLHWYLQKPGQSPQLLIYKVSNRFSGVPDRFSGSGSGTDFTLKISRVEAEDVGVYYCSQNTHVPPTFGQGTKVEIERTVAAPSVFIFPPSDEQLKSGTASVVCLLNNFYPREAKVQWKVDNALQSGNSQESVTEQDSKDSTYSLSSTLTLSKADYEKHKVYACEVTHQGLSSPVTKSFNRGEC
notes: H1 P329R; H2 L234Y
B4: GpH7-A48/GpH7-B3-03-20W/GpL16-k0 (antibody, human IgG1, kappa)
heavy 1: B3 heavy 1
heavy 2: not shown
light: B3 light
notes: H1 P329R; H2 G236W
B5: GpH7-A5/GpH7-HA5/GpL16-k0 (antibody, human IgG1, kappa)
heavy 1: not shown
heavy 2: B3 heavy 1 with L232Y, K354D, R433H, K437E
light: B3 light
notes: H2 L234Y and P329R

How the values were obtained:
[1] = target: T1, FcgRIIa R type extracellular domain, C-terminal His tag (human, UniProt P12318 34-217); experiment: SPR (Biacore); KD of H240-Kn120/H240-Hl068/L73-k0 divided by KD of the variant
T1 construct: extracellular domain; Soluble analyte in Biacore; also called FcγRIIa R; FcγRIIa(R); not shown: His tag at the C terminus
T1 sequence (looked up): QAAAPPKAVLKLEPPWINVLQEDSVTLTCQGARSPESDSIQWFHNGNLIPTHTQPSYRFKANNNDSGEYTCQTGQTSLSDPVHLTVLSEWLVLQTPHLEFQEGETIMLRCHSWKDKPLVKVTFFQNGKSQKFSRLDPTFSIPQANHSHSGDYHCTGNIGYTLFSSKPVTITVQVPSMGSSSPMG
Procedure: (§1) Analysis of interaction between objective antibody and the FcγR was carried out using Biacore T100 (GE Healthcare), Biacore T200, Biacore A100, and Biacore 4000. HBS-EP+ (GE Healthcare) was used as the running buffer, and the measurement temperature was set to 25° C. Chips produced by immobilizing the antigen peptide by the amine coupling method to a Series S sensor Chip CM5 (GE Healthcare), chips produced by allowing preliminarily biotinylated antigen peptides to interact with and immobilize onto a Series S Sensor Chip SA (certified) (GE Healthcare), chips produced by immobilizing Protein L (ACTIGEN, BioVision) to Series S Sencor Chip CM5 (GE Healthcare), or chips produced by immobilizing Protein A/G (Thermo Scientific) to Series S Sencor Chip CM5 (GE Healthcare) were used. Antibodies of interest were captured onto these chips, and allowed to interact to each FcγR diluted with running buffer. To regenerate and repeatedly use the chip, the antibodies captured onto the chip were washed off by reacting 10 mM glycine-HCl, pH 1.5.

[2] = target: T2, FcgRIIa H type extracellular domain, C-terminal His tag (human, UniProt P12318 34-217); experiment: as above
T2 construct: extracellular domain; Soluble analyte in Biacore; also called FcγRIIa H; FcγRIIa(H); not shown: His tag at the C terminus
T2 sequence (looked up): T1 sequence (looked up) with R134H
Procedure: as §1

[3] = target: T3, FcgRIIb extracellular domain, C-terminal His tag (human, UniProt P31994 43-217); experiment: as above
T3 construct: extracellular domain; Soluble analyte in Biacore; also called FcγRIIb; not shown: His tag at the C terminus
T3 sequence (looked up): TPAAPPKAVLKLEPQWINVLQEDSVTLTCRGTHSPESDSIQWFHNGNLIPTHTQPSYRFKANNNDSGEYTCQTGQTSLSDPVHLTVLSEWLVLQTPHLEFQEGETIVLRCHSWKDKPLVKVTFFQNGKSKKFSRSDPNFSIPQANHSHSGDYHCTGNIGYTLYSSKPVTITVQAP
Procedure: as §1

[4] = target: T4, FcgRIIIa F type extracellular domain, C-terminal His tag (human, UniProt P08637 17-208); experiment: as above
T4 construct: extracellular domain; Soluble analyte in Biacore; also called FcγRIIIa F; not shown: His tag at the C terminus
T4 sequence (P08637 17-208): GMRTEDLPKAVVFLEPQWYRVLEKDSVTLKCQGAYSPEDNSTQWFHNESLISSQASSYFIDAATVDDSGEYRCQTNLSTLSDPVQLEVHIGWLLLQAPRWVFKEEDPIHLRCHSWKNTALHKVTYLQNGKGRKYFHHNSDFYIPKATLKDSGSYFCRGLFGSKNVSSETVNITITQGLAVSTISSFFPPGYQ
Procedure: as §1

[5] = target: T5, FcgRIIIa V type extracellular domain, C-terminal His tag (human, UniProt P08637 17-208); experiment: as above
T5 construct: extracellular domain; Soluble analyte in Biacore; also called FcγRIIIa V; not shown: His tag at the C terminus
T5 sequence (P08637 17-208 F176V): as the sequence (P08637 17-208) above, with F160V counted along it
Procedure: as §1

[6] = target: T1, FcgRIIa R type extracellular domain, …; experiment: as above; remark: listed apart in the source
Procedure: (§2) H240-Kn179/H240-H1089/L73-k0, H240-Kn180/H240-Hl089/L73-k0, H240-Kn192/H240-Hl204/L73-k0, and H240-Kn193/H240-Hl204/L73-k0 were prepared by combining each of H240-Kn192 and H240-Kn193 as an H chain, L73-k0 as the L chain, and H240-Hl089 and H240-Hl204 as the other H chain according to the method described in Reference Example 1. The variants described above were assessed for their binding to FcγR according to the method described in Reference Example 8.
as §1

[7] = target: T2, FcgRIIa H type extracellular domain, …; experiment: as above; remark: listed apart in the source
Procedure: as §2, §1

[8] = target: T3, FcgRIIb extracellular domain, …; experiment: as above; remark: listed apart in the source
Procedure: as §2, §1

[9] = target: T4, FcgRIIIa F type extracellular domain, …; experiment: as above; remark: listed apart in the source
Procedure: as §2, §1

[10] = target: T5, FcgRIIIa V type extracellular domain, …; experiment: as above; remark: listed apart in the source
Procedure: as §2, §1

[11] = target: FcγRIIIa extracellular domain with C-terminal His tag (human, UniProt P08637 17-208); experiment: SPR (Biacore), relative binding activity; GpH7-A5/GpH7-B3/GpL16-k0 = 100
Sequence of FcγRIIIa extracellular domain with C-terminal His tag (P08637 17-208): as the sequence (P08637 17-208) above

| relative KD [1] | relative KD [2] | relative KD [3] | relative KD [4] | relative KD [5] | relative KD [6] | relative KD [7] | relative KD [8] | relative KD [9] | relative KD [10] | FcγRIIIa BINDING ACTIVITY [11] [%] | Binder |
| --- | --- | --- | --- | --- | --- | --- | --- | --- | --- | --- | --- |
| 0.8 | 1 | 0.6 | 0.5 | 0.4 | 0.8 | 1 | 0.6 | 0.5 | 0.4 |  | B1 |
| 1 | 1.2 | 0.6 | 0.7 | 0.5 | 1 | 1.2 | 0.6 | 0.7 | 0.5 |  | B2 |
|  |  |  |  |  |  |  |  |  |  | 11 | B3 |
|  |  |  |  |  |  |  |  |  |  | 13 | B4 |
|  |  |  |  |  |  |  |  |  |  | 60 | B5 |
